The target in assay [1] is purified polymeric mucin MUC5B (human) (UniProt Q9HC84). Put plainly: rate-zonal centrifugation on sucrose gradients; purified MUC5B with 200 μM CsA in PBS at pH 5.5, compared with pH 7.4; 10-35% (w/v) sucrose; MUC5B detected by slot blot.
For assay [2], the target named is recombinant N-terminal protein of MUC5B (NT5B) (human) (UniProt Q9HC84). Put plainly: rate-zonal centrifugation on sucrose gradients; recombinant NT5B or CT5B with 200 μM CsA in PBS at pH 5.5, compared with pH 7.4; 5-20% (w/v) sucrose; detected by anti-His slot blot.
For assay [3], the target named is recombinant C-terminal protein of MUC5B (CT5B) (human). Put plainly: rate-zonal centrifugation on sucrose gradients; recombinant MUC5B sub-domain (NT5B, CT5B 400 μg/mL) incubated 1 h at 37 °C with 1 mM CsA, 5-20% (w/v) sucrose in PBS pH 7.4, 210,000 g, 15 °C, 2 h 30 min; protein detected by anti-His slot blot (NT5B, CT5B) or SDS-PAGE (Cys7).
Assay [4] concerns the target recombinant N-terminal protein of MUC5B (NT5B) (human) (UniProt Q9HC84). Described as above.
In assay [5] the target is purified polymeric mucin MUC2 (human) (UniProt Q02817). Put plainly: rate-zonal centrifugation on sucrose gradients; purified polymeric mucin incubated 1 h at 37 °C with cyclic peptide (1 mM; CsA also 200 μM and 2 mM; MUC5B 100, 200 or 400 μg/mL), 10-35% (w/v) sucrose in PBS pH 7.4, 210,000 g, 15 °C, 1 h 15 min; mucin detected in fractions and pellet by slot blot; the peptide itself is not detected.

Assay [6] has as its target purified polymeric mucin MUC5AC (human) (UniProt P98088). The assay is described as above.
Assay [7] deals with purified polymeric mucin MUC5B (human) (UniProt Q9HC84). The assay is described as above.

For cyclosporin A (peptide), in assay [1], the fold increase of MUC5B in the pellet at pH 5.5 against pH 7.4 (200 μM CsA) is 3.6 fold. Moreover, in assay [2], the fold increase of NT5B in the pellet at pH 5.5 against pH 7.4 (200 μM CsA) is 4.2 fold. For the same substance, the percent of CT5B in the pellet (1 mM CsA) in assay [3] is 29.1%. In addition, in assay [4], the percent of NT5B in the pellet (1 mM CsA) was 16.3%. Further, the percent of MUC2 in the pellet (1 mM CsA) in assay [5] is 14.6%. The substance also yielded a percent of MUC5AC in the pellet (1 mM CsA) in assay [6] of 8.2%. In addition, in assay [7], the percent of MUC5B in the pellet (1 mM CsA, MUC5B 100 μg/mL) was found to be 18.6%; the percent of MUC5B in the pellet (1 mM CsA, MUC5B 200 μg/mL) amounted to 13.3%; the percent of MUC5B in the pellet (2 mM CsA, MUC5B 200 μg/mL) was 11.8%.
